Test results taken from the supplement of paper PMC10126150.
± gives the standard deviation of the averaged measurements.

system: ATP; experiment: switch fluorescence ratio, 500 uM ATP over buffer (Cy3 cluster intensity, sum of 5 cycles each) (fold (ratio)); higher = stronger signal-on switching upon ATP binding; sequences stand for … in TCGTCGGCAGCGTCAGATGTGTATAAGAGACAGTTTTTTTTTTTTTTTTTTTTTTTTT…TC; settings: aptamer strand: ATP DNA aptamer (quencher-CACCTGGGGGAGTATTGCGGAGGAAGG + anchor), 100 nM annealed; ATP concentration: 500 uM
Outline: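 Values give the fluorescence ratio for each switch-domain sequence, averaged from per-cluster ratios of summed target-cycle to summed buffer-cycle Cy3 intensity. The Cy3-labelled switching-strand clusters sat on a modified Illumina MiSeq flow-cell, were annealed to 100 nM quencher-labelled ATP aptamer, and were imaged in selection buffer, then after 15 min with 500 uM ATP at 22 °C. Five cycles ran with NaOH stripping and re-annealing between them, and clusters outside 100-1000 RFU were excluded.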
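Also: ATP exposure 15 min at 22 °C before imaging.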

| Sequence | switch fluorescence ratio |
| --- | --- |
| ATCTATCCTT | 1.01 ± 0.036 |
| ATCTATCTGT | 1 ± 0.027 |
| ATCTCACTT | 1.02 ± 0.03 |
| ATCTCCTGCC | 1.475 ± 0.0051 |
| ATCTGATGGC | 0.957 ± 0.039 |
| ATCTGCATGA | 1.01 ± 0.063 |
| ATCTGCCGGT | 0.981 ± 0.017 |
| ATCTGCGGGA | 1.05 ± 0.042 |
| ATCTGGAACG | 0.988 ± 0.02 |
| ATCTGGGTTA | 0.993 ± 0.013 |
| ATCTGGTCAT | 0.972 ± 0.016 |
| ATCTGTGGA | 1.015 ± 0.0024 |
| ATCTGTTGTC | 1.06 ± 0.021 |
| ATCTTCGGTT | 1 ± 0.055 |
| ATCTTGATTG | 1.03 ± 0.016 |
| ATCTTGGGGC | 0.984 ± 0.023 |
| ATCTTGGTCC | 0.9948 ± 0.003 |
| ATCTTGTGGG | 0.9678 ± 0.0064 |
| ATCTTTATGG | 0.964 ± 0.014 |
| ATCTTTTGAG | 0.97588 ± 0.00047 |
| ATGAAAAAAG | 0.993 ± 0.016 |
| ATGAAAAAAT | 0.974 ± 0.015 |
| ATGAAAAGGA | 0.97123 ± 0.00096 |
| ATGAAAGGCT | 1.02 ± 0.0022 |
| ATGAAAGTAG | 1.005 ± 0.0012 |

| Sequence | switch fluorescence ratio |
| --- | --- |
| ATGAAAGTCT | 0.976 ± 0.042 |
| ATGAACGTTT | 1.2 ± 0.28 |
| ATGAAGCATG | 1.08 ± 0.04 |
| ATGAAGGCGG | 1.05 ± 0.068 |
| ATGAAGGGGA | 1 ± 0.049 |
| ATGAATATTA | 0.99254 ± 0.00014 |
| ATGAATCGTC | 0.9927 ± 0.0037 |
| ATGAATCTAA | 1.01 ± 0.046 |
| ATGAATTCGG | 1.01 ± 0.011 |
| ATGACACGGA | 1.04 ± 0.01 |
| ATGACCCCTC | 1.044 ± 0.007 |
| ATGACGCGTC | 0.982 ± 0.045 |
| ATGAGAATGC | 1.024 ± 0.0063 |
| ATGAGAGAAT | 1.0144 ± 0.0004 |
| ATGAGAGCGG | 0.996 ± 0.096 |
| ATGAGAGGGC | 1.054 ± 0.0092 |
| ATGAGCGCAC | 1.06 ± 0.024 |
| ATGAGCGGGG | 0.98 ± 0.058 |
| ATGAGCGTCA | 0.9904 ± 0.0017 |
| ATGAGGCAGT | 1.12 ± 0.039 |
| ATGAGGGCCA | 1.01 ± 0.059 |
| ATGAGGGGCG | 1.02 ± 0.041 |
| ATGAGGTAGG | 1.03 ± 0.05 |
| ATGAGGTCTC | 0.98 ± 0.046 |
| ATGAGGTGAT | 1.057 ± 0.0041 |

| Sequence | switch fluorescence ratio |
| --- | --- |
| ATGAGGTGGG | 0.992 ± 0.036 |
| ATGAGGTTGC | 0.978 ± 0.011 |
| ATGAGTCCGT | 1.16 ± 0.017 |
| ATGAGTTCTC | 1 ± 0.042 |
| ATGATACAGT | 1.021 ± 0.0067 |
| ATGATAGAGA | 1.06 ± 0.021 |
| ATGATAGATA | 1.004 ± 0.0047 |
| ATGATAGCTT | 1 ± 0.026 |
| ATGATATTTG | 1.009 ± 0.006 |
| ATGATCAAAT | 1 ± 0.054 |
| ATGATCAGTG | 0.98 ± 0.056 |
| ATGATCCGTT | 1.001 ± 0.0059 |
| ATGATCTTCC | 2.3 ± 0.091 |
| ATGATGACGA | 1.06 ± 0.11 |
| ATGATGGTGG | 1.02 ± 0.057 |
| ATGATGGTTC | 1.01 ± 0.012 |
| ATGATGTAGG | 1.033 ± 0.0075 |
| ATGATGTATG | 0.989 ± 0.027 |
| ATGATGTGGA | 1.01 ± 0.077 |
| ATGATGTTGA | 1 ± 0.04 |
| ATGATTTGAG | 0.9905 ± 0.0022 |
| ATGCAAACGA | 1.23 ± 0.065 |
| ATGCAATGGA | 1 ± 0.064 |
| ATGCACCAGG | 2.55 ± 0.19 |
| ATGCACGTAT | 1.03 ± 0.048 |

| Sequence | switch fluorescence ratio |
| --- | --- |
| ATGCACTCGA | 1.03 ± 0.012 |
| ATGCAGCGGG | 1.01 ± 0.028 |
| ATGCAGGATT | 0.981 ± 0.02 |
| ATGCAGTCTA | 1.017 ± 0.005 |
| ATGCATCGGG | 0.9974 ± 0.0049 |
| ATGCATGATT | 0.9822 ± 0.0051 |
| ATGCATGGAG | 1.03 ± 0.016 |
| ATGCATGGTT | 1.02 ± 0.054 |
| ATGCCCAGGG | 1.61 ± 0.04 |
| ATGCGAGTAT | 1.023 ± 0.0018 |
| ATGCGCACGG | 1.064 ± 0.009 |
| ATGCGCCCTG | 1 ± 0.015 |
| ATGCGGGATT | 1.01 ± 0.023 |
| ATGCGGTAGA | 1.02 ± 0.042 |
| ATGCGTGTTT | 1.003 ± 0.0014 |
| ATGCTAAAAG | 1.008 ± 0.0096 |
| ATGCTATGTA | 1.01 ± 0.033 |
| ATGCTCAGTT | 0.9836 ± 0.0062 |
| ATGCTCTGCC | 0.992 ± 0.029 |
| ATGCTGCCTG | 1.01 ± 0.019 |
| ATGCTGGGTC | 0.973 ± 0.028 |
| ATGCTTATCA | 0.9807 ± 0.0051 |
| ATGGAAAAAG | 0.963 ± 0.046 |
| ATGGAAAAGA | 0.978 ± 0.016 |
| ATGGAAAGCA | 1.05 ± 0.029 |

| Sequence | switch fluorescence ratio |
| --- | --- |
| ATGGAAATGG | 0.996 ± 0.024 |
| ATGGAAGGTT | 0.991 ± 0.033 |
| ATGGACCTGC | 1.06 ± 0.064 |
| ATGGACGCTA | 1.12 ± 0.048 |
| ATGGACGGGT | 0.996 ± 0.03 |
| ATGGAGGCGT | 0.994 ± 0.015 |
| ATGGATAAGA | 1 ± 0.014 |
| ATGGATGTGG | 0.979 ± 0.055 |
| ATGGATGTTA | 0.978 ± 0.032 |
| ATGGATTTGC | 1.02 ± 0.081 |
| ATGGCACCGG | 1.018 ± 0.0069 |
| ATGGCAGGCA | 0.9929 ± 0.0054 |
| ATGGCCGAGT | 1.03 ± 0.038 |
| ATGGCTAATA | 0.9806 ± 0.0057 |
| ATGGCTACCG | 1.01 ± 0.033 |
| ATGGGAGAAT | 0.9801 ± 0.009 |
| ATGGGAGGCG | 0.982 ± 0.043 |
| ATGGGATGGC | 0.97 ± 0.031 |
| ATGGGATTAA | 1.032 ± 0.0025 |
| ATGGGCAGTC | 1.21 ± 0.41 |
| ATGGGCCCAT | 1.01 ± 0.011 |
| ATGGGCGATG | 1.01 ± 0.055 |
| ATGGGCGGGT | 1 ± 0.035 |
| ATGGGCTGAA | 1.021 ± 0.0092 |
| ATGGGGAAAT | 0.984 ± 0.021 |

| Sequence | switch fluorescence ratio |
| --- | --- |
| ATGGGGACGG | 1.013 ± 0.0035 |
| ATGGGGATCA | 1.017 ± 0.0022 |
| ATGGGGATTA | 0.9956 ± 0.0092 |
| ATGGGGATTT | 0.991 ± 0.01 |
| ATGGGGGAAA | 0.991 ± 0.011 |
| ATGGGGGAAC | 0.975 ± 0.011 |
| ATGGGGGCCA | 0.974 ± 0.019 |
| ATGGGGGGAT | 1.23 ± 0.58 |
| ATGGGGGGGC | 1.01 ± 0.022 |
| ATGGGGGGGT | 0.999 ± 0.025 |
| ATGGGGGGTA | 0.986 ± 0.044 |
| ATGGGGGGTC | 0.985 ± 0.041 |
| ATGGGGGTAA | 1.01 ± 0.024 |
| ATGGGGGTCA | 0.998 ± 0.015 |
| ATGGGGGTTA | 0.987 ± 0.04 |
| ATGGGGTGTC | 0.943 ± 0.067 |
| ATGGGTAGTT | 0.977 ± 0.022 |
| ATGGGTATTG | 1.009 ± 0.0039 |
| ATGGGTCCAG | 1.01 ± 0.019 |
| ATGGGTCTCG | 0.966 ± 0.019 |
| ATGGTAGCAA | 2.05 ± 0.14 |
| ATGGTATTTG | 0.998 ± 0.037 |
| ATGGTCGCGG | 0.985 ± 0.035 |
| ATGGTCTTTT | 1.014 ± 0.0032 |
| ATGGTGAGGA | 0.995 ± 0.018 |

| Sequence | switch fluorescence ratio |
| --- | --- |
| ATGGTGCGGA | 0.956 ± 0.06 |
| ATGGTGCGGT | 0.987 ± 0.02 |
| ATGGTGGGGA | 1.03 ± 0.03 |
| ATGGTGGTTT | 0.998 ± 0.063 |
| ATGGTGTTAT | 0.989 ± 0.014 |
| ATGGTTGAGG | 0.987 ± 0.031 |
| ATGGTTTCGA | 0.982 ± 0.04 |
| ATGGTTTCGC | 0.9932 ± 0.0067 |
| ATGGTTTCTT | 1 ± 0.034 |
| ATGTAAAATT | 0.972 ± 0.038 |
| ATGTAACTAT | 1.03 ± 0.021 |
| ATGTAAGATT | 0.9891 ± 0.0047 |
| ATGTAATCAC | 1.04 ± 0.049 |
| ATGTAATTCG | 1.002 ± 0.0086 |
| ATGTAGCGAC | 1.44 ± 0.39 |
| ATGTAGGAAC | 0.999 ± 0.012 |
| ATGTAGGTTA | 0.987 ± 0.018 |
| ATGTAGTTCC | 1.064 ± 0.0022 |
| ATGTATGATA | 0.967 ± 0.013 |
| ATGTATGTTA | 0.978 ± 0.055 |
| ATGTATTTAT | 1.04 ± 0.061 |
| ATGTCAGGAA | 1.02 ± 0.041 |
| ATGTCCCGGT | 0.974 ± 0.025 |
| ATGTCCCGTT | 0.98 ± 0.014 |
| ATGTCCGGGG | 0.985 ± 0.042 |

| Sequence | switch fluorescence ratio |
| --- | --- |
| ATGTCCGGGT | 1.03 ± 0.032 |
| ATGTCCGGTT | 1 ± 0.019 |
| ATGTCGATGC | 1.01 ± 0.032 |
| ATGTCGGTCG | 1.02 ± 0.012 |
| ATGTCTTGGC | 0.998 ± 0.03 |
| ATGTCTTGTG | 0.985 ± 0.026 |
| ATGTGAAGAG | 0.9952 ± 0.003 |
| ATGTGACTGG | 0.986 ± 0.044 |
| ATGTGAGGGT | 1.017 ± 0.0039 |
| ATGTGAGTAT | 0.9753 ± 0.0028 |
| ATGTGCAGCG | 1.025 ± 0.0049 |
| ATGTGCCTGC | 1.07 ± 0.03 |
| ATGTGCGTAG | 1.01 ± 0.017 |
| ATGTGGGCAA | 1.08 ± 0.013 |
| ATGTGGGCTA | 0.992 ± 0.03 |
| ATGTGGGGAC | 1.01 ± 0.084 |
| ATGTGGGGGG | 0.992 ± 0.039 |
| ATGTGGTCT | 1.02 ± 0.03 |
| ATGTGTAAAG | 0.98 ± 0.017 |
| ATGTGTCTAT | 0.998 ± 0.036 |
| ATGTTAAACG | 1.007 ± 0.0024 |
| ATGTTAGAAA | 1.02 ± 0.032 |
| ATGTTAGGG | 0.98 ± 0.011 |
| ATGTTAGGTT | 1 ± 0.029 |
| ATGTTATGAA | 1.06 ± 0.11 |
